Target: the molecule itself
Assay: AUC

B1: Nep1 from Methanocaldococcus jannaschii (native protein) (enzyme, UniProt Q57977 2-205, looked up)
chain: TYNIILAKSALELIPEEIKNKIRKSRVYKYDILDSNYHYKAMEKLKDKEMRGRPDIIHISLLNILDSPINHEKKLNIYIHTYDDKVLKINPETRLPRNYFRFLGVMEKVLKGERNHLIKMEEKTLEDLLNEINAKKIAIMTKTGKLTHPKLLKEYDTFIIGGFPYGKLKINKEKVFGDIKEISIYNKGLMAWTVCGIICYSLSF
  stoichiometry N: 2

Reference: publication PMC2275143 (Nucleic Acids Research, 2008)
